Assay results reported in article PMC4183563, “Protospacer Adjacent Motif (PAM)-Distal Sequences Engage CRISPR Cas9 DNA Target Cleavage”.

Columns and labels:
Cas9 (wild type) [1] = molecular target: T1, Cas9 (wild type) (Streptococcus pyogenes, UniProt Q99ZW2 1-1368); assay: EMSA; 20 nM crRNA cr20, 20 nM tracrRNA; EMSA: 1 nM 32P-dsDNA, 10 nM Cas9 (or titrated), 20 nM tracrRNA, 20 nM crRNA, 2.5 ug/ml heparin, 5% native PAGE; buffer, pH and temperature as in cited ref 11 (not given); conditions: protein: recombinant; label: 32P on DNA; duplex DNA; crRNA:tracrRNA guide
Cas9 (wild type) [2] = molecular target: T1, Cas9 (wild type); assay: EMSA; cr20 + tracrRNA; EMSA: 1 nM 32P-dsDNA, 10 nM Cas9 (or titrated), 20 nM tracrRNA, 20 nM crRNA, 2.5 ug/ml heparin, 5% native PAGE; buffer, pH and temperature as in cited ref 11 (not given); conditions: protein: recombinant; label: 32P on DNA; duplex DNA; crRNA:tracrRNA guide

T1 sequence (Q99ZW2 whole entry): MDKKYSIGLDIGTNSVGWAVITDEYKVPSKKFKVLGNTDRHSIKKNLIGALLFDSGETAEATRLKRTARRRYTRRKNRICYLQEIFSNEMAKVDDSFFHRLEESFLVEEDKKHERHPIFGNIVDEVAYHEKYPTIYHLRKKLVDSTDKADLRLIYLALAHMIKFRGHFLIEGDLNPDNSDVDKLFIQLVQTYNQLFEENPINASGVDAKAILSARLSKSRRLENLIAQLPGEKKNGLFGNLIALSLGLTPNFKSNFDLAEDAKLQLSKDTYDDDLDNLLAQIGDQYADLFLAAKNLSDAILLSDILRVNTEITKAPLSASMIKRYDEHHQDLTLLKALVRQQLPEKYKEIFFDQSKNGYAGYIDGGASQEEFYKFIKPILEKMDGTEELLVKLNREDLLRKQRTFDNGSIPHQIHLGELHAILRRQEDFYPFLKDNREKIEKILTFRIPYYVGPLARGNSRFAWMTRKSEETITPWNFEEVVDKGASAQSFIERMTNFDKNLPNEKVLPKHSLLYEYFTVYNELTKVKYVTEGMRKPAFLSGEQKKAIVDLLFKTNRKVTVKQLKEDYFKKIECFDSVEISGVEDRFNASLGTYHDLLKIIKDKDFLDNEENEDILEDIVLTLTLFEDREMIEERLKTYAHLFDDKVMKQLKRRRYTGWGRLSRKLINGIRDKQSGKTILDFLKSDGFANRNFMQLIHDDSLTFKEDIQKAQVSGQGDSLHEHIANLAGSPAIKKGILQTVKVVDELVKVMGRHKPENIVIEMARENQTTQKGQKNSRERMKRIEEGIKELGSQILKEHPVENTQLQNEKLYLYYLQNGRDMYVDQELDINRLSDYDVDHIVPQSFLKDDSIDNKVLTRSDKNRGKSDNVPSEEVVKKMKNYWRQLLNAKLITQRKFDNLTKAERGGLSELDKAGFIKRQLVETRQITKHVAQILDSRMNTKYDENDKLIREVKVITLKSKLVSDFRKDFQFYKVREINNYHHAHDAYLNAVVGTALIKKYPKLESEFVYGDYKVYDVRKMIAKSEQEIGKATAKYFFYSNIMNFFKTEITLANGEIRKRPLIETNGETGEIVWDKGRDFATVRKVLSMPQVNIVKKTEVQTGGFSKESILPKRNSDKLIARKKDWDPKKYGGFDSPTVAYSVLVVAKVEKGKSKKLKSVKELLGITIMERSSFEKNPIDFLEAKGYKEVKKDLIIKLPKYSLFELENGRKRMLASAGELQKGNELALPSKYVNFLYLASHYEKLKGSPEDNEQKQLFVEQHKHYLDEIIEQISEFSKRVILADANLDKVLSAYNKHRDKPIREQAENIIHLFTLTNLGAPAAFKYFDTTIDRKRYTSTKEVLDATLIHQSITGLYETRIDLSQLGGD

| Binder | Kd (Cas9 (wild type) [1]) [nM] | binding result (Cas9 (wild type) [2]) |
| --- | --- | --- |
| p53 [Exon 7] 55 bp duplex + cr20 + tracrRNA (mixed) DNA 1: TCCACTACAAGTACATGTGTAATAGCTCCTGCATGGGGGGCATGAACCGCCGACC DNA 2: GGTCGGCGGTTCATGCCCCCCATGCAGGAGCTATTACACATGTACTTGTAGTGGA | 1.5 ± 0.1 |  |
| OT#7 probe + cr20 + tracrRNA (mixed) DNA 1: TCCACTACAAGTACATGTGGAACAGCTCCTGCATGGGGGGCATGAACCGCCGACC DNA 2: GGTCGGCGGTTCATGCCCCCCATGCAGGAGCTGTTCCACATGTACTTGTAGTGGA |  | binds |
